Values quoted from earlier work, collected in PMC11743636.

Columns and labels:
sgp130 (Homo sapiens) = sgp130 (Homo sapiens) (UniProt P40189)
sIL-6R (Homo sapiens) = sIL-6R (Homo sapiens) (UniProt P08887)
sIL-6R (Homo sapiens), sequence (P08887 20-355): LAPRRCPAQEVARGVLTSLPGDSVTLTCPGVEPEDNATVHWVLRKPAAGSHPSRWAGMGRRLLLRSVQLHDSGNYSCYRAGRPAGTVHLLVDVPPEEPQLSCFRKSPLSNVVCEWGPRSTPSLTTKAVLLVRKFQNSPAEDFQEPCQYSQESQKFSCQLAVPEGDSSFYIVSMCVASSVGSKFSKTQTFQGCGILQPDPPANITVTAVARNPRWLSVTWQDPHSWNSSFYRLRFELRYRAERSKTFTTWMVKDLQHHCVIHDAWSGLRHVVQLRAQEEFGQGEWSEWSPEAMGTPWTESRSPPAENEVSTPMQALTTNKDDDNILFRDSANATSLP

sgp130 (Homo sapiens), sequence (P40189 23-619): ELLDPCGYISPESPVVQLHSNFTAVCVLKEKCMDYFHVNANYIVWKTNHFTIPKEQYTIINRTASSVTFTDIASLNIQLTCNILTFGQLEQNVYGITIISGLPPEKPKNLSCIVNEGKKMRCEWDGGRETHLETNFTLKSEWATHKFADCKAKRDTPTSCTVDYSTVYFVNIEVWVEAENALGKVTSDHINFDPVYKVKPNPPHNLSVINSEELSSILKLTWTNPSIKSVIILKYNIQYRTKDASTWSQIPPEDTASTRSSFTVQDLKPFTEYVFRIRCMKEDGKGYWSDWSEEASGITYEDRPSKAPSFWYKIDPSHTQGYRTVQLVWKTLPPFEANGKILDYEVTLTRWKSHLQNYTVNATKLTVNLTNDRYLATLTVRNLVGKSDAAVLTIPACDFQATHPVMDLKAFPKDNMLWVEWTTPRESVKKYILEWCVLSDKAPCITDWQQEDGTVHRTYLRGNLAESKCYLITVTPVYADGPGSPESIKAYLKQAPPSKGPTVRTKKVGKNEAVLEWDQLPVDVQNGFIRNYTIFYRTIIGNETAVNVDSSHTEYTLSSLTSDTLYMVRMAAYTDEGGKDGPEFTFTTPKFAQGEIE

Kd (sgp130 (Homo sapiens)) | Kd (sIL-6R (Homo sapiens)) | Substance
0.05 nM |  | IL-6/sIL-6R complex (from UniProt P05231)
 | 0.5 nM | IL-6 (from UniProt P05231)
